Experiment [1] addresses ZnF domain of Arabidopsis thaliana SPL5, residues 60 to 127 (Arabidopsis thaliana) (UniProt Q9S758). The experiment in a line: ITC; 200 μM SAP05 from the syringe into 20 μM SPL5^ZnF in the cell; 25 °C, 20 mM HEPES pH 7.5, 150 mM NaCl; one-site binding model.
Experiment [2] concerns the target SAP05–Rpn10^vWA complex (Aster Yellows phytoplasma strain Witches Broom (AYWB) | Arabidopsis thaliana) (UniProt P55034). The experiment in a line: ITC; SPL5^ZnF from the syringe (250 μM for wild-type SAP05, 200 μM for the SAP05–Rpn10^vWA complex or SAP05 mutants) into 20 μM partner in the cell; 25 °C, 20 mM HEPES pH 7.5, 150 mM NaCl; one-site binding model. A general note: ITC needs no label: the signal is the heat of the interaction.

Experiment [3] deals with SAP05 H58A T60W (purified, for ITC) (Aster Yellows phytoplasma strain Witches Broom (AYWB)). The description is as above.
Experiment [4] has as its target SAP05 D66E (purified, for ITC) (Aster Yellows phytoplasma strain Witches Broom (AYWB)). Described as above.
The target of experiment [5] is SAP05 of Aster Yellows phytoplasma strain Witches Broom (AYWB), residues 33 to 135 (Aster Yellows phytoplasma strain Witches Broom (AYWB)). The experiment is described as above.

“SAP05 of Aster Yellows phytoplasma strain Witches Broom (AYWB), residues 33 to 135 (natural protein)”: in experiment [1], the equilibrium dissociation constant (Kd) stood at 450 nM and the stoichiometry N was 1.

B1: ZnF domain of Arabidopsis thaliana SPL5, residues 60 to 127 (domain or fragment)
chain: SRLCQVDRCTVNLTEAKQYYRRHRVCEVHAKASAATVAGVRQRFCQQCSRFHELPEFDEAKRSCRRRL
B1: the dissociation constant (Kd) in experiment [2] was 650 nM; in experiment [3], 3600 nM; in experiment [4], 17700 nM; in experiment [5] it was 520 nM. Further, in experiment [2], the stoichiometry N came to 1.

Usually Kd stands for the free concentration of one partner at which half of the binding sites on the other are occupied at equilibrium, for simple one-to-one binding. A higher Kd goes with a looser complex. What is called stoichiometry N is the number of molecules, sites or subunits per partner or assembly.

These data come from article PMC10710061.
